Experimental data published in US20230135471A1, “UBIQUITIN VARIANTS WITH IMPROVED AFFINITY FOR 53BP1” (Integrated DNA Technologies, Inc., priority 2021, published 2023).

What follows are substances tested against 53BP1 fragment (a.a. 1221-1718) fused to an adenylate cyclase fragment (two-hybrid) (UniProt Q12888) (assay: cell-based or functional assay).
Substance “i53 + T9S two-hybrid fusion (designed binder)” has an Experiment 1 Average Enrichment of 0.4 log2, an Experiment 1 Rep 1 Enrichment of 0.34 log2 and an Experiment 1 Rep 2 Enrichment of 0.47 log2. It also gave an Experiment 2 Average Enrichment of 0.18 log2, an Experiment 2 Rep 1 Enrichment of 0.19 log2 and an Experiment 2 Rep 2 Enrichment of 0.17 log2.
Substance “i53 + K33V two-hybrid fusion (designed binder)” has an Experiment 1 Average Enrichment of 2.45 log2, an Experiment 1 Rep 1 Enrichment of 2.71 log2 and an Experiment 1 Rep 2 Enrichment of 2.19 log2. It also gave an Experiment 2 Average Enrichment of 1.75 log2, an Experiment 2 Rep 1 Enrichment of 2.03 log2 and an Experiment 2 Rep 2 Enrichment of 1.46 log2.
“i53 + S57R two-hybrid fusion (designed binder)” was tested, and the Experiment 1 Average Enrichment was 0.02 log2, the Experiment 1 Rep 1 Enrichment was 0.05 log2 and the Experiment 1 Rep 2 Enrichment was -0.01 log2. The Experiment 2 Average Enrichment was -0.18 log2, the Experiment 2 Rep 1 Enrichment was -0.32 log2 and the Experiment 2 Rep 2 Enrichment was -0.03 log2.
“i53 + T9E two-hybrid fusion (designed binder)” showed an Experiment 1 Average Enrichment of -0.04 log2, an Experiment 1 Rep 1 Enrichment of 0.37 log2 and an Experiment 1 Rep 2 Enrichment of -0.44 log2. The Experiment 2 Average Enrichment was 0.33 log2, the Experiment 2 Rep 1 Enrichment was 0.02 log2 and the Experiment 2 Rep 2 Enrichment was 0.63 log2.
Substance “i53 + P38V two-hybrid fusion (designed binder)” has an Experiment 1 Average Enrichment of 1.21 log2, an Experiment 1 Rep 1 Enrichment of 1.16 log2 and an Experiment 1 Rep 2 Enrichment of 1.26 log2. The Experiment 2 Average Enrichment was 0.05 log2, the Experiment 2 Rep 1 Enrichment was 0.38 log2 and the Experiment 2 Rep 2 Enrichment was -0.29 log2.
In the case of “i53 + K33C two-hybrid fusion (designed binder)”, the Experiment 1 Average Enrichment is reported as 1.96 log2, the Experiment 1 Rep 1 Enrichment is reported as 2.85 log2 and the Experiment 1 Rep 2 Enrichment is reported as 1.07 log2. For the same substance, the Experiment 2 Average Enrichment was 0.77 log2, the Experiment 2 Rep 1 Enrichment was 0.55 log2 and the Experiment 2 Rep 2 Enrichment was 0.99 log2.
Substance “i53 + S49A two-hybrid fusion (designed binder)” has an Experiment 1 Average Enrichment of 0.5 log2, an Experiment 1 Rep 1 Enrichment of 0.62 log2 and an Experiment 1 Rep 2 Enrichment of 0.39 log2. The Experiment 2 Average Enrichment was 0.41 log2, the Experiment 2 Rep 1 Enrichment was 0.76 log2 and the Experiment 2 Rep 2 Enrichment was 0.06 log2.
With “i53 + R54N two-hybrid fusion (designed binder)” the Experiment 1 Average Enrichment was 0.19 log2, the Experiment 1 Rep 1 Enrichment was -0.26 log2 and the Experiment 1 Rep 2 Enrichment was 0.65 log2. For the same substance, the Experiment 2 Average Enrichment was 0.01 log2, the Experiment 2 Rep 1 Enrichment was 0.03 log2 and the Experiment 2 Rep 2 Enrichment was -0.01 log2.
Work on “i53 + P38M two-hybrid fusion (designed binder)” yielded an Experiment 1 Average Enrichment of -0.31 log2, an Experiment 1 Rep 1 Enrichment of -2.07 log2 and an Experiment 1 Rep 2 Enrichment of 1.45 log2. For the same substance, the Experiment 2 Average Enrichment was 1.25 log2, the Experiment 2 Rep 1 Enrichment was 1.37 log2 and the Experiment 2 Rep 2 Enrichment was 1.13 log2.
“i53 + K66R two-hybrid fusion (designed binder)” gave an Experiment 1 Average Enrichment of -0.69 log2, an Experiment 1 Rep 1 Enrichment of -0.84 log2 and an Experiment 1 Rep 2 Enrichment of -0.54 log2. For the same substance, the Experiment 2 Average Enrichment was 0.55 log2, the Experiment 2 Rep 1 Enrichment was 0.13 log2 and the Experiment 2 Rep 2 Enrichment was 0.97 log2.
“i53 + N25R two-hybrid fusion (designed binder)” was tested, and the Experiment 1 Average Enrichment was 0.31 log2, the Experiment 1 Rep 1 Enrichment was 0.25 log2 and the Experiment 1 Rep 2 Enrichment was 0.36 log2. The Experiment 2 Average Enrichment was 0.29 log2, the Experiment 2 Rep 1 Enrichment was 0.25 log2 and the Experiment 2 Rep 2 Enrichment was 0.34 log2.
With “i53 + S20A two-hybrid fusion (designed binder)” the Experiment 1 Average Enrichment was 0.14 log2, the Experiment 1 Rep 1 Enrichment was 0.3 log2 and the Experiment 1 Rep 2 Enrichment was -0.02 log2. The Experiment 2 Average Enrichment was -0.26 log2, the Experiment 2 Rep 1 Enrichment was -0.26 log2 and the Experiment 2 Rep 2 Enrichment was -0.25 log2.
“i53 + P38A two-hybrid fusion (designed binder)” showed an Experiment 1 Average Enrichment of 0.06 log2, an Experiment 1 Rep 1 Enrichment of -0.41 log2 and an Experiment 1 Rep 2 Enrichment of 0.53 log2. For the same substance, the Experiment 2 Average Enrichment was 0 log2, the Experiment 2 Rep 1 Enrichment was -0.16 log2 and the Experiment 2 Rep 2 Enrichment was 0.15 log2.
“i53 + S49V two-hybrid fusion (designed binder)” was tested, and the Experiment 1 Average Enrichment was 0.52 log2, the Experiment 1 Rep 1 Enrichment was 0.8 log2 and the Experiment 1 Rep 2 Enrichment was 0.23 log2. The Experiment 2 Average Enrichment was 0.49 log2, the Experiment 2 Rep 1 Enrichment was 0.52 log2 and the Experiment 2 Rep 2 Enrichment was 0.45 log2.
